This note sets out measurements from publication PMC8395244, “The Oxoglutarate Binding Site and Regulatory Mechanism Are Conserved in Ammonium Transporter Inhibitors GlnKs from Methanococcales” (International Journal of Molecular Sciences, 2021).

Assay [1] deals with MtGlnK2 (GlnK isoform 2 from Methanothermococcus thermolithotrophicus), recombinant, N-terminally tagged (Methanothermococcus thermolithotrophicus). Put plainly: crystal structure; sitting drop at 18 °C; crystallised with or without 2 mM ATP, 2 mM 2OG and 2 mM MgCl2; solved by molecular replacement with PDB 2J9D.
For assay [2], the target named is MtGlnK1 (GlnK isoform 1 from Methanothermococcus thermolithotrophicus), recombinant, N-terminally tagged (Methanothermococcus thermolithotrophicus). Described as above.

What is called stoichiometry N is a count of units in the complex or per binding partner.

With “MtGlnK2 (GlnK isoform 2 from Methanothermococcus thermolithotrophicus), recombinant, N-terminally tagged (natural protein)”, the stoichiometry N in assay [1] stood at 3.
Take “MtGlnK1 (GlnK isoform 1 from Methanothermococcus thermolithotrophicus), recombinant, N-terminally tagged (natural protein)”: the stoichiometry N in assay [2] is 3.
